In patent US11203743B2, “Method for producing long-chain glycosylated genistein” (Jiangnan University, priority 2019, dated 2021):
Residue numbers refer to the chain shown, from its start. Names may count otherwise. Values belong to the molecule of their own block, whether it stands above or below them.

How the values were obtained:
[1] = relative to genistein; cited from earlier work
[2] = Specificity of different cyclodextrin glucosyltransferases to glycosylated genistein products (maltodextrin donor, genistein receptor, HPLC); format: biochemical; settings: for content of long-chain glycosylated genistein in the reaction solution / content of short-chain glycosylated genistein in the reaction solution / ratio of the molar content of long-chain glycosylated genistein to the molar content of total glycosylated genistein in the reaction solution / ratio of the molar content of short-chain glycosylated genistein to the molar content of total glycosylated genistein in the reaction solution: 40° C., pH 6.5, 120 rpm, 20-24 hours
Description: Genistein (purchased from Sigma) was dissolved in dimethyl sulfoxide (DMSO) to prepare a genistein solution with a final concentration of 7.5 g/L; maltodextrin (purchased from Shanghai Sangon Biotech Co., Ltd.) was dissolved in a PBS buffer (50 mM, pH 6.5) to prepare a maltodextrin solution with a final concentration of 40 g/L; the freeze-fried pure enzymes of the mutants A156V/L174P, A156V/L174P/166Y, A156V/L174P/A166V, A156V/L174P/A166G, A156V/L174P/A166K, A156S, A156L and L174M obtained in Example 1 were dissolved in a PBS buffer (50 mM, pH 6.5) separately to prepare a CGTase enzyme solution with a final concentration of 15 U/L; 300 μL of the genistein solution, 500 μL of the maltodextrin solution and 200 μL of the CGTase enzyme solution were taken separately, mixed in a 2 mL vial with a lid and placed in a shaker for slow shaking at 40° C. and 120 rpm for 20-24 hours to obtain a reaction solution.
The molar content of short-chain glycosylated genistein (here the short-chain glycosylated genistein was a mixture of monoglycosylated genistein, diglycosylated genistein and triglycosylated genistein) and long-chain glycosylated genistein (here the long-chain glycosylated genistein was a mixture of tetraglycosylated genistein, pentaglycosylated genistein and hexaglycosylated genistein) in the reaction solution was detected by HPLC, the ratio (%) of the molar content of short-chain glycosylated genistein and long-chain glycosylated genistein in the reaction solution to the molar content of total glycosylated genistein in the reaction solution and the content (g/L) of short-chain glycosylated genistein and long-chain glycosylated genistein in the reaction solution were calculated, and detection results were shown in Tables 1 to 2. A method for detecting the ratio (%) of the content of short-chain glycosylated genistein and long-chain glycosylated genistein in the reaction solution to the content of total glycosylated genistein in the reaction solution by HPLC included that the reaction solution was filtered through a 0.22 μm filter membrane, and an Amethyst C18-H column (4.6*250 mm, Sepax, America) was used for detection (see Table 3 for specific detection conditions). The content of long-chain glycosylated genistein=the molar content of hexaglycosylated genistein*the molecular weight of hexaglycosylated genistein+ the molar content of pentaglycosylated genistein*the molecular weight of pentaglycosylated genistein+ the molar content of tetraglycosylated genistein*the molecular weight of tetraglycosylated genistein, and the content of short-chain glycosylated genistein=the molar content of triglycosylated genistein*the molecular weight of triglycosylated genistein+ the molar content of diglycosylated genistein*the molecular weight of diglycosylated genistein+ the molar content of monoglycosylated genistein*the molecular weight of monoglycosylated genistein.

[3] = Effect of reaction pH on the yield of long-chain glycosylated genistein; format: biochemical
Description: On the basis of Example 2, the mutant A156V/L174P/A166Y with the highest specificity to long-chain glycosylated genistein products was selected, the reaction temperature was controlled to be 50° C., and the reaction pH was changed into 4, 5, 6, 7 and 8 separately.
(§1) With reference to Example 2, the molar content of short-chain glycosylated genistein (here the short-chain glycosylated genistein was a mixture of monoglycosylated genistein, diglycosylated genistein and triglycosylated genistein) and long-chain glycosylated genistein (here the long-chain glycosylated genistein was a mixture of tetraglycosylated genistein, pentaglycosylated genistein and hexaglycosylated genistein) in a reaction solution was detected by HPLC, the ratio (%) of the molar content of short-chain glycosylated genistein and long-chain glycosylated genistein in the reaction solution to the molar content of total glycosylated genistein in the reaction solution and the content (g/L) of short-chain glycosylated genistein and long-chain glycosylated genistein in the reaction solution were calculated, and detection results were shown in Table 5 and FIG. 2.

[4] = Effect of reaction temperature on the yield of long-chain glycosylated genistein; format: biochemical
Description: On the basis of Example 2, the mutant A156V/L174P/A166Y with the highest specificity to long-chain glycosylated genistein products was selected, and the reaction temperature was changed into 30° C., 35° C., 40° C., 45° C., 50° C., 55° C. and 60° C. separately.
as §1, with “4” for “5”, “1.” for “2.”

Molecule: genistein diglucoside
solubility in water, times higher than that of genistein [1]: 3,700 times

Molecule: genistein triglucoside
solubility in water, times higher than that of genistein [1]: 44,000 times

content of long-chain glycosylated genistein in the reaction solution [2]: 8.5 g/L
content of short-chain glycosylated genistein in the reaction solution [2]: 8.0 g/L
ratio of the molar content of long-chain glycosylated genistein to the molar content of total glycosylated genistein in the reaction solution [2]: 40%
ratio of the molar content of short-chain glycosylated genistein to the molar content of total glycosylated genistein in the reaction solution [2]: 60%
specificity to long-chain glycosylated genistein products in comparison with wild type ([2]; in words, from Tables 1 to 2): significantly improved
increase of the yield of long-chain glycosylated genistein compared with wild-type cyclodextrin glucosyltransferase ([2]; versus wild type): 165%
B1: A156V/L174P/A166Y: cyclodextrin glucosyltransferase mutant: A156V, L174P and alanine 166 into tyrosine of SEQ ID NO: 1 (protein)
chain: SPDTSVDNKVNFSTDVIYQIVTDRFADGDRTNNPAGDAFSGDRSNLKLYFGGDWQGIIDKINDGYLTGMGVTALWISQPVENITSVIKYSGVNNTSYHGYWARDFKQTNDAFGDFADFQNLIDTAHAHNIKVVIDFAPNHTSPADRDNPGFAENGVLYDNGSLLGYYSNDTAGPFHHNGGTDFSTIEDGIYKNLYDLADINHNNNAMDAYFKSAIDLWLGMGVDGIRFDAVKHMPFGWQKSFVSSIYGGDHPVFTFGEWYLGADQTDGDNIKFANESGMNLLDFEYAQEVREVFRDKTETMKDLYEVLASTESQYDYINNMVTFIDNHDMDRFQVAGSGTRATEQALALTLTSRGVPAIYYGTEQYMTGDGDPNNRAMMTSFNTGTTAYKVIQALAPLRKSNPAIAYGTTTERWVNNDVLIIERKFGSSAALVAINRNSSAAYPISGLLSSLPAGTYSDVLNGLLNGNSITVGSGGAVTNFTLAAGGTAVWQYTAPETSPAIGNVGPTMGQPGNIVTIDGRGFGGTAGTVYFGTTAVTGSGIVSWEDTQIKAVIPKVAAGKTGVSVKTSSGTASNTFKSFNVLTGDQVTVRFLVNQANTNYGTNVYLVGNAAELGSWDPNKAIGPMYNQVIAKYPSWYYDVSVPAGTKLDFKFIKKGGGTVTWEGGGNHTYTTPASGVGTVTVDWQN
modifications: Translated from synthetic DNA
ratio of the molar content of long-chain glycosylated genistein to the molar content of total glycosylated genistein in the reaction solution ([3]; FIG. 2, pH 4 (highest)): 70%
increase of the ratio of long-chain to total glycosylated genistein in comparison with pH 6.5 ([3]; FIG. 2, pH 4 versus pH 6.5): 30%
content of long-chain glycosylated genistein in the reaction solution ([3]; pH 4, 50° C.): 10.2 g/L
content of short-chain glycosylated genistein in the reaction solution ([3]; pH 4, 50° C.): 2.6 g/L
yield of long-chain glycosylated genistein ([3]; pH 4 or 8 (highest), 50° C.): 10.2 to 10.3 g/L
increase of the yield of long-chain glycosylated genistein in comparison with pH 6.5 ([3]; pH 4 or 8 versus pH 6.5): 20%
content of long-chain glycosylated genistein in the reaction solution ([3]; pH 5, 50° C.): 7.2 g/L
content of short-chain glycosylated genistein in the reaction solution ([3]; pH 5, 50° C.): 8.8 g/L
content of long-chain glycosylated genistein in the reaction solution ([3]; pH 6, 50° C.): 8.5 g/L
content of short-chain glycosylated genistein in the reaction solution ([3]; pH 6, 50° C.): 8.0 g/L
content of long-chain glycosylated genistein in the reaction solution ([3]; pH 7, 50° C.): 9.7 g/L
content of short-chain glycosylated genistein in the reaction solution ([3]; pH 7, 50° C.): 5.5 g/L
content of long-chain glycosylated genistein in the reaction solution ([3]; pH 8, 50° C.): 10.3 g/L
content of short-chain glycosylated genistein in the reaction solution ([3]; pH 8, 50° C.): 3.6 g/L
content of long-chain glycosylated genistein in the reaction solution ([4]; 30° C.): 6.8 g/L
content of short-chain glycosylated genistein in the reaction solution ([4]; 30° C.): 8.9 g/L
content of long-chain glycosylated genistein in the reaction solution ([4]; 35° C.): 7.6 g/L
content of short-chain glycosylated genistein in the reaction solution ([4]; 35° C.): 8.5 g/L
content of long-chain glycosylated genistein in the reaction solution ([4]; 40° C.): 8.4 g/L
content of short-chain glycosylated genistein in the reaction solution ([4]; 40° C.): 8.0 g/L
increase of the yield of long-chain glycosylated genistein in comparison with 40° C. ([4]; 45-50° C. versus 40° C.): 21.4-23.8%
content of long-chain glycosylated genistein in the reaction solution ([4]; 45° C.): 10.1 g/L
content of short-chain glycosylated genistein in the reaction solution ([4]; 45° C.): 6.8 g/L
content of long-chain glycosylated genistein in the reaction solution ([4]; 50° C.): 10.0 g/L
content of short-chain glycosylated genistein in the reaction solution ([4]; 50° C.): 6.6 g/L
content of long-chain glycosylated genistein in the reaction solution ([4]; 55° C.): 8.9 g/L
content of short-chain glycosylated genistein in the reaction solution ([4]; 55° C.): 5.6 g/L
content of long-chain glycosylated genistein in the reaction solution ([4]; 60° C.): 5.7 g/L
content of short-chain glycosylated genistein in the reaction solution ([4]; 60° C.): 3.6 g/L
ratio of the molar content of long-chain glycosylated genistein to the molar content of total glycosylated genistein in the reaction solution ([4]; FIG. 1, highest value reached with rising temperature): 49%
increase of the ratio of long-chain to total glycosylated genistein in comparison with 40° C. ([4]; FIG. 1, versus 40° C.): 21%
yield of long-chain glycosylated genistein ([4]; temperature 45-50° C. (highest)): 10.2 to 10.4 g/L

content of long-chain glycosylated genistein in the reaction solution [2]: 3.2 g/L
content of short-chain glycosylated genistein in the reaction solution [2]: 11.4 g/L
ratio of the molar content of long-chain glycosylated genistein to the molar content of total glycosylated genistein in the reaction solution [2]: 15%
ratio of the molar content of short-chain glycosylated genistein to the molar content of total glycosylated genistein in the reaction solution [2]: 85%
B2: Wild type: cyclodextrin glucosyltransferase with the amino acid sequence shown as SEQ ID NO: 1 (protein)
chain: B1 chain with V156A, Y166A, P174L
modifications: Translated from synthetic DNA
